Legend:
[1] = molecular target: Chlamydomonas reinhardtii Rubisco (CrRubisco) (Chlamydomonas reinhardtii (endogenous in Chlamydomonas cells)) (UniProt P00877); assay: SPR; Rubisco immobilised as bait, fragments as analyte (prey); Biacore T100/T200, 25 °C; analyte injected at 15 μl/min for 30 s, 360 s dissociation; fit of y = Bmax·x/(KD + x); apparent KD; triplicate
[2] = molecular target: Chlorella sorokiniana Rubisco holoenzyme (CsRubisco) (Chlorella sorokiniana UTEX1230 (endogenous in Chlorella cells)) (UniProt W8SUA8); assay: as above
[3] = molecular target: Chlorella sorokiniana Rubisco holoenzyme (CsRubisco) (Chlorella sorokiniana UTEX1230 (endogenous in Chlorella cells)) (UniProt W8SUA8); assay: cryo-EM structure; 0.5 μM CsRubisco and 16 μM α3–α4 in 200 mM sorbitol, 50 mM HEPES, 50 mM KOAc, 2 mM Mg(OAc)2, 1 mM CaCl2, pH 6.8; D4 map of the holoenzyme and C1 map after symmetry expansion
[4] = molecular target: Chlorella sorokiniana Rubisco holoenzyme (CsRubisco) (Chlorella sorokiniana UTEX1230 (endogenous in Chlorella cells)) (UniProt W8SUA8); assay: native gel or EMSA; native PAGE gel-shift assay; Rubisco and fragments mixed for 30 min at room temperature; 50 mM Tris-HCl pH 8.0, 50 mM NaCl (Fig. 3a); 4-20% gels, 4 h at 100 V, 4 °C

Chain of Chlamydomonas reinhardtii Rubisco (CrRubisco) (Chlamydomonas reinhardtii (endogenous in Chlamydomonas cells)) (P08475 46-185 limits assumed, chain 2 of 2, other chains not shown): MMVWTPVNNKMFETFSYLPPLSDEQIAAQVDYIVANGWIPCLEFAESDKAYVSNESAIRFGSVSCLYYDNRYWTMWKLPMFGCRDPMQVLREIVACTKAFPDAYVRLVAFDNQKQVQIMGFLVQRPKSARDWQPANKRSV

## CsLinker α3 fragment (residues 142–207) (domain or fragment)
[1]
  Kd: 108 µM
[2]
  Kd: 103 µM

## CsLinker α3–α4 fragment (residues 142–272) (domain or fragment)
[1]
  Kd: 1.3 µM
[2]
  Kd: 1.21 µM
[3]
  percent of the CsRbcL sites occupied: 23%
[4]
  K0.5 (half-occupancy): 1.2 µM
